# Biological target: CCR4 (human) (UniProt P51679)
# Experiment: cell-based or functional assay
# Sequence of UniProt P51679 (P51679 whole entry): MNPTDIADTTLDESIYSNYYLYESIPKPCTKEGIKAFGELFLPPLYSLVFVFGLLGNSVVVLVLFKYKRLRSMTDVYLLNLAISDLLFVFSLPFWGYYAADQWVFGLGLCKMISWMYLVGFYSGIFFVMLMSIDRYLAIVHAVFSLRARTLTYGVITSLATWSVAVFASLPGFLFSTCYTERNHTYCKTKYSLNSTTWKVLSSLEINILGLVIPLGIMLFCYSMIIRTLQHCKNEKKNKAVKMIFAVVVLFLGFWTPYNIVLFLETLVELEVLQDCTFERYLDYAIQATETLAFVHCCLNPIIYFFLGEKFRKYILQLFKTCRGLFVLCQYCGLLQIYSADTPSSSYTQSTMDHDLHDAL
substance,measurement,value
mogamulizumab (antibody),"EC50 (pM), cytotoxicity of the negative control antibody against MT-2 cells expressing CCR4 with T-LAK effector cells (calcein release)",1140 pM
same,"Emax (%), cytotoxicity of the negative control antibody against MT-2 cells expressing CCR4 with T-LAK effector cells (calcein release)",8.5%
